Experimental data: publication PMC3156716

Target: T1, His6-PhoP (Pseudomonas aeruginosa PAO1?) (UniProt Q9I4F9)
T1 sequence: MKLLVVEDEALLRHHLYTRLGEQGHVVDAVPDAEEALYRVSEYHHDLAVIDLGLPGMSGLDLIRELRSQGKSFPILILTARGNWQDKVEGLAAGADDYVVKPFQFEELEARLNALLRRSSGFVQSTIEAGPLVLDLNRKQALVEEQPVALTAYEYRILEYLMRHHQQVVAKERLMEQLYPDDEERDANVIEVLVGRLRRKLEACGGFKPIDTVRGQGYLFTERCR
Experiment: EMSA
Conditions: DIG Gel Shift Kit 2nd Generation (Roche) per manufacturer; 6% native polyacrylamide gel; buffer, salt, pH and temperature not stated

Question: “GAGGATCCGTGAATGGCCGGATTATAGCCAAGTGGCCGTGGCAACGGCATAGGCCGCGGAAGCGCCGTGCGGCGCCCGCGGCTTCGGGCCCGGTCAGGACTCGCCGCGCTCGCGGGCGATGGCACGGTAGCCGATGTCCTTGCGGTAGAAGCAGCCGTTCCAGCGGATCTTCTCGGCCAGGCGATAGGCCTGTTGCTGGGCGGCGGACACGCTCTCGCCGATGGCGGTGGCACAGAGCACGCGGCCGCCTCGAGTC (double strand) [truncated retS promoter, 255 bp, lacking PhoP box]” was tested. Which binding did it give?
Answer: Its binding is “no binding”.

Question: Which binding does the source give for “GAGGATCCCAGGAGTGATATTAGCGATTCCCAGTGCTCCCGCAACCTGCCAGAAAACCCAGCGAAGCTTCTTCGGCAGCCATTTTAGAAAAATATATTCCTTTAATTTCAATAAGTTACTTAAATTCACCGAGCGTTTTTGGCAAACCTCCCGGGCATTTATCTACTTAGGCTCACACGCCGTGTAAGTTAATGCTTACAAGAGCAGACACAAAAAACCCGGCGGATCCTC (double strand) [rsmZ promoter, full length]” here?
Answer: The binding was “binds”.
